Consider 16 molecules from US20240376170A1 (BRIGHT PEAK THERAPEUTICS, published 2024).

First the molecules themselves.
T1: IL-2 receptor βγ complex (human, UniProt P14784 27-551; P31785 23-369)
T1 sequence (looked up) 1: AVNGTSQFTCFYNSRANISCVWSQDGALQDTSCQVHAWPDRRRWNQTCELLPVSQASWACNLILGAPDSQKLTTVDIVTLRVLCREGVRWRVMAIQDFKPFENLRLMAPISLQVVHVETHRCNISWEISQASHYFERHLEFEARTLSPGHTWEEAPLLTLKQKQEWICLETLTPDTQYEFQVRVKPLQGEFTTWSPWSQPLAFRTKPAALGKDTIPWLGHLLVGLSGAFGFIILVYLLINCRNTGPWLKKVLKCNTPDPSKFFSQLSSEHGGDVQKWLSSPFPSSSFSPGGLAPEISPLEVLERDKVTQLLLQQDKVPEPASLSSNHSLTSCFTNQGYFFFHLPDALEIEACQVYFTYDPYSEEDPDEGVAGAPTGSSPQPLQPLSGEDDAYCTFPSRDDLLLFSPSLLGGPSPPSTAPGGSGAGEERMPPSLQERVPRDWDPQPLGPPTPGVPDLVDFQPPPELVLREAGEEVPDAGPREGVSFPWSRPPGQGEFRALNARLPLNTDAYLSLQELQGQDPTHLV
T1 sequence (looked up) 2: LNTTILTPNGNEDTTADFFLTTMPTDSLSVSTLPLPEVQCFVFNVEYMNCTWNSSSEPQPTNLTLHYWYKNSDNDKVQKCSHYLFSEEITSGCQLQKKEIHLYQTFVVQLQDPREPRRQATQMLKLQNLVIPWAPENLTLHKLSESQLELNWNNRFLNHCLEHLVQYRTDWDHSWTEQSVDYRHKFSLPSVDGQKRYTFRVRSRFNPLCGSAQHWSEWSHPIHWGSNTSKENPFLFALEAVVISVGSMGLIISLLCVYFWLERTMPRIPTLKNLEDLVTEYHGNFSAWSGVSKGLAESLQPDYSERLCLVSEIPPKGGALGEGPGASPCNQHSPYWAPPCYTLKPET

B1: CMP-329 (ligand)
chain: APTSSSTKKTQLQLEHLLLDLQEILNGINNYKNPKLTR[Nle]L[hSer][Yn3″]KF[Ygp″][Nle]PKKATELKHLQCLEEELKPLEEVL[hSer]LAQSKNFHLRPRDLISNINVIVLELKGSETTF[hSer]CEYADETATIVEFLNRWITFSQSIISTLT
modifications: bridge 9-23; not fully specified (bridges); ends not checked
B2: CMP-330, MMP2 cleaved molecule (ligand)
chain: APTSSSTKKTQLQLEHLLLDLQEILNGINNYKNPKLTR[Nle]L[hSer]Y(9x polyethylene glycol‑azido)KFY(8x polyethylene glycol‑amino)[Nle]PKKATELKHLQCLEEELKPLEEVL[hSer]LAQSKNFHLRPRDLISNINVIVLELKGSETTF[hSer]CEYADETATIVEFLNRWITFSQSIISTLT
modifications: not fully specified; also: K9 and E23 side chains attached to another sequence, MMP2-cleaved product, remnants not given here
B3: CMP-318 (ligand)
chain: SGRVANLVGAPTSSSTKKTQLQLEHLLLDLQEILNGINNYKNPKLTR[Nle]L[hSer][Yn3]KF[Ygp][Nle]PKKATELKHLQCLEEELKPLEEVL[hSer]LAQSKNFHLRPRDLISNINVIVLELKGSETTF[hSer]CEYADETATIVEFLNRWITFSQSIISTLT
modifications: lactam N-32; ends not checked
B4: CMP-320 (ligand)
chain: SGRVAPQPLVDAPTSSSTKKTQLQLEHLLLDLQEILNGINNYKNPKLTR[Nle]L[hSer][Yn3(8)]KF[Ygp(8)][Nle]PKKATELKHLQCLEEELKPLEEVL[hSer]LAQSKNFHLRPRDLISNINVIVLELKGSETTF[hSer]CEYADETATIVEFLNRWITFSQSIISTLT
modifications: lactam N-34
B5: CMP-329, uPa cleaved molecule (ligand)
chain: APTSSSTKKTQLQLEHLLLDLQEILNGINNYKNPKLTR[Nle]L[hSer]Y(9x polyethylene glycol‑azido)KFY(8x polyethylene glycol‑amino)[Nle]PKKATELKHLQCLEEELKPLEEVL[hSer]LAQSKNFHLRPRDLISNINVIVLELKGSETTF[hSer]CEYADETATIVEFLNRWITFSQSIISTLT
modifications: not fully specified; also: K9 and E23 side chains attached to another sequence, uPa-cleaved product, remnants not given here
B6: CMP-329, Matriptase cleaved molecule (ligand)
chain: APTSSSTKKTQLQLEHLLLDLQEILNGINNYKNPKLTR[Nle]L[hSer][Yn3″]KF[Ygp″][Nle]PKKATELKHLQCLEEELKPLEEVL[hSer]LAQSKNFHLRPRDLISNINVIVLELKGSETTF[hSer]CEYADETATIVEFLNRWITFSQSIISTLT
modifications: ends and bridges not checked; also: after matriptase cleavage, remnants of the Lys9–Glu23 peptide linker not given here
B7: CMP-329, MMP2 cleaved molecule (ligand)
chain: APTSSSTKKTQLQLEHLLLDLQEILNGINNYKNPKLTR[Nle]L[hSer][Yn3″]KF[Ygp″][Nle]PKKATELKHLQCLEEELKPLEEVL[hSer]LAQSKNFHLRPRDLISNINVIVLELKGSETTF[hSer]CEYADETATIVEFLNRWITFSQSIISTLT
modifications: ends and bridges not checked; also: after MMP2 cleavage, remnants of the Lys9–Glu23 peptide linker not given here
B8: CMP-317 (ligand)
chain: GSGSGSG[PEG4′]APTSSSTKKTQLQLEHLLLDLQEILNGINNYKNPKLTR[Nle]L[hSer][Yn3]KF[Ygp][Nle]PKKATELKHLQCLEEELKPLEEVL[hSer]LAQSKNFHLRPRDLISNINVIVLELKGSETTF[hSer]CEYADETATIVEFLNRWITFSQSIISTLT
modifications: bridge N-31; not fully specified (bridges); ends not checked
B9: CMP-328, Matriptase cleaved molecule (ligand)
chain: APTSSSTKKTQLQLEHLLLDLQEILNGINNYKNPKLTR[Nle]L[hSer][Yn3″]KF[Ygp″][Nle]PKKATELKHLQCLEEELKPLEEVL[hSer]LAQSKNFHLRPRDLISNINVIVLELKGSETTF[hSer]CEYADETATIVEFLNRWITFSQSIISTLT
modifications: ends and bridges not checked; also: after matriptase cleavage, remnants of the Lys9–Glu23 peptide linker not given here
B10: CMP-330, uPa cleaved molecule (ligand)
chain: APTSSSTKKTQLQLEHLLLDLQEILNGINNYKNPKLTR[Nle]L[hSer]Y(9x polyethylene glycol‑azido)KFY(8x polyethylene glycol‑amino)[Nle]PKKATELKHLQCLEEELKPLEEVL[hSer]LAQSKNFHLRPRDLISNINVIVLELKGSETTF[hSer]CEYADETATIVEFLNRWITFSQSIISTLT
modifications: not fully specified; also: Lys9 side chain attached to another sequence, Glu23 side chain attached to another sequence
B11: CMP-330 (ligand)
chain: APTSSSTKKTQLQLEHLLLDLQEILNGINNYKNPKLTR[Nle]L[hSer]Y(9x polyethylene glycol‑azido)KFY(8x polyethylene glycol‑amino)[Nle]PKKATELKHLQCLEEELKPLEEVL[hSer]LAQSKNFHLRPRDLISNINVIVLELKGSETTF[hSer]CEYADETATIVEFLNRWITFSQSIISTLT
modifications: bridge 9-23; not fully specified (bridges)
B12: CMP-319 (ligand)
chain: RGRRVANLVGAPTSSSTKKTQLQLEHLLLDLQEILNGINNYKNPKLTR[Nle]L[hSer][Yn3]KF[Ygp][Nle]PKKATELKHLQCLEEELKPLEEVL[hSer]LAQSKNFHLRPRDLISNINVIVLELKGSETTF[hSer]CEYADETATIVEFLNRWITFSQSIISTLT
modifications: lactam N-33; ends not checked
B13: CMP-321 (ligand)
chain: SGRVQPLVDAPTSSSTKKTQLQLEHLLLDLQEILNGINNYKNPKLTR[Nle]L[hSer][Yn3(8)]KF[Ygp(8)][Nle]PKKATELKHLQCLEEELKPLEEVL[hSer]LAQSKNFHLRPRDLISNINVIVLELKGSETTF[hSer]CEYADETATIVEFLNRWITFSQSIISTLT
modifications: lactam N-32
B14: CMP-328, uPa cleaved molecule (ligand)
chain: APTSSSTKKTQLQLEHLLLDLQEILNGINNYKNPKLTR[Nle]L[hSer][Yn3″]KF[Ygp″][Nle]PKKATELKHLQCLEEELKPLEEVL[hSer]LAQSKNFHLRPRDLISNINVIVLELKGSETTF[hSer]CEYADETATIVEFLNRWITFSQSIISTLT
modifications: ends and bridges not checked; also: after uPa cleavage, remnants of the Lys9–Glu23 peptide linker not given here
B15: CMP-317, MMP2 cleaved molecule (ligand)
chain: APTSSSTKKTQLQLEHLLLDLQEILNGINNYKNPKLTR[Nle]L[hSer]Y(9x polyethylene glycol‑azido)KFY(8x polyethylene glycol‑amino)[Nle]PKKATELKHLQCLEEELKPLEEVL[hSer]LAQSKNFHLRPRDLISNINVIVLELKGSETTF[hSer]CEYADETATIVEFLNRWITFSQSIISTLT
modifications: also: A1 attached to another sequence via 4x polyethylene glycol, E23 side chain attached to another sequence, m119 after MMP2 cleavage, product not given here as a sequence
B16: CMP-330, Matriptase cleaved molecule (ligand)
chain: APTSSSTKKTQLQLEHLLLDLQEILNGINNYKNPKLTR[Nle]L[hSer]Y(9x polyethylene glycol‑azido)KFY(8x polyethylene glycol‑amino)[Nle]PKKATELKHLQCLEEELKPLEEVL[hSer]LAQSKNFHLRPRDLISNINVIVLELKGSETTF[hSer]CEYADETATIVEFLNRWITFSQSIISTLT
modifications: not fully specified; also: K9 and E23 side chains attached to another sequence, matriptase-cleaved product, remnants not given here

Bridges are numbered along the chain shown (N, C = ends). Primed or numbered codes have the meaning given here. [ ]: non-standard residue; d: D form. 8x polyethylene glycol‑amino = O-(8x polyethylene glycol-amino)-tyrosine, SITE 45; 9x polyethylene glycol‑azido = O-(9x polyethylene glycol-azido)-tyrosine, SITE 42; Ygp(8) = Tyr, amino-capped PEG8 (O-(8x polyethylene glycol-amino)-tyrosine); Yn3(8) = Tyr, azide-capped PEG9 (O-(9x polyethylene glycol-azido)-tyrosine); Ygp = O-(8x polyethylene glycol-amino)-tyrosine (Tyr, amino-capped PEG8); Yn3 = O-(9x polyethylene glycol-azido)-tyrosine (Tyr, azide-capped PEG9); Ygp″ = O-(8x polyethylene glycol-amino)-tyrosine; Yn3″ = O-(9x polyethylene glycol-azido)-tyrosine; PEG4′ = 4x polyethylene glycol; hSer = N[C@@H](CCO)C(=O)O; Nle = CCCC[C@H](N)C(=O)O

This test addresses T1, IL-2 receptor βγ complex. As to the kind of experiment: cell-based or functional assay.
As for B1, the “Average EC50, pSTAT5 Assay in NK cells” value was 20.6 nM.
To B2 belongs 6.12 nM; to B3, 37.4 nM; to B4, 13.2 nM.
In the case of B5 it was 18.1 nM; in that of B6, 14.4 nM.
In the case of B7, the “Average EC50, pSTAT5 Assay in NK cells” value is 0.687 nM.
In the case of B8 it was 34.1 nM; in that of B9, 4.28 nM; in that of B10, 27 nM.
For B11, the “Average EC50, pSTAT5 Assay in NK cells” value was found to be 20.3 nM.
In the case of B12 it was 7.72 nM.
To B13 belongs 55.1 nM; to B14, 2.96 nM.
To B15 belongs 12.2 nM.
In the case of B16, the “Average EC50, pSTAT5 Assay in NK cells” value was found to be 16.4 nM.
